Test results reported in paper PMC3460915, “Identification, Characterization and Application of a G-Quadruplex Structured DNA Aptamer against Cancer Biomarker Protein Anterior Gradient Homolog 2”.

Tests used:
[1] = molecular target: T1, GST-AGR2 (on GSH-Sepharose beads) (UniProt O95994 21-175); assay: flow cytometry bead binding; 1x PBS (137 mM NaCl, 2.7 mM KCl, 10 mM Na2HPO4, 2.0 mM KH2PO4), pH 7.4, 37 C, 45 min, 200 uL; K+ varied in Fig 4; conditions: protein: recombinant, (pGEX-GST-AGR2)
[2] = molecular target: GST (on GSH-Sepharose beads) (UniProt P08515 1-218); assay: as above; conditions: protein: recombinant; chain copies: 2; label: FAM
Sequence of GST (on GSH-Sepharose beads) (P08515 whole entry): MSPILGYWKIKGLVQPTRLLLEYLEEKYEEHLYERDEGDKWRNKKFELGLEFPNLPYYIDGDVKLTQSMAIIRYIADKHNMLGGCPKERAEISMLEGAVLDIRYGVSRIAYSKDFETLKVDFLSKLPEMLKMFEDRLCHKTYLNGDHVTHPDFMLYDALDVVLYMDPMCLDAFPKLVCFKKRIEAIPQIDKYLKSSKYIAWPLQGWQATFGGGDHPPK

[3] = molecular target: T1, GST-AGR2 (on GSH-Sepharose beads); assay: flow cytometry bead binding; with K+; 1x PBS (137 mM NaCl, 2.7 mM KCl, 10 mM Na2HPO4, 2.0 mM KH2PO4), pH 7.4, 37 C, 45 min, 200 uL; K+ varied in Fig 4; conditions: protein: recombinant; (pGEX-GST-AGR2); label: 3' FAM; intramolecular parallel G4
[4] = molecular target: T1, GST-AGR2 (on GSH-Sepharose beads); assay: SA-bead flow cytometry (allosteric beacon); SA beads; 100 nM AGR2 detected; 1x PBS (137 mM NaCl, 2.7 mM KCl, 10 mM Na2HPO4, 2.0 mM KH2PO4), pH 7.4, 37 C, 45 min, 200 uL; K+ varied in Fig 4; conditions: protein: recombinant; (pGEX-GST-AGR2); label: 3' FAM; hairpin
Thrombin = Thrombin (UniProt P00734;P00734 328-363;364-622); assay: SA-bead flow cytometry (allosteric beacon); 500 nM; SA beads; 1x PBS (137 mM NaCl, 2.7 mM KCl, 10 mM Na2HPO4, 2.0 mM KH2PO4), pH 7.4, 37 C, 45 min, 200 uL; K+ varied in Fig 4
Streptavidin (SA beads) = Streptavidin (SA beads) (UniProt P22629 25-183); assay: SA-bead flow cytometry (allosteric beacon); with AGR2; 1x PBS (137 mM NaCl, 2.7 mM KCl, 10 mM Na2HPO4, 2.0 mM KH2PO4), pH 7.4, 37 C, 45 min, 200 uL; K+ varied in Fig 4; conditions: protein: commercial; chain copies: 4; label: 3' FAM; hairpin
Sequence of Streptavidin (SA beads) (P22629 25-183): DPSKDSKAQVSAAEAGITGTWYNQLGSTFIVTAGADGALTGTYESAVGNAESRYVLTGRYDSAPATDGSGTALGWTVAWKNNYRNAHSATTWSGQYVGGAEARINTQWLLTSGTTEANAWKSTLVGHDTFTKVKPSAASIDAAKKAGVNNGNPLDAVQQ

T1 sequence (O95994 21-175): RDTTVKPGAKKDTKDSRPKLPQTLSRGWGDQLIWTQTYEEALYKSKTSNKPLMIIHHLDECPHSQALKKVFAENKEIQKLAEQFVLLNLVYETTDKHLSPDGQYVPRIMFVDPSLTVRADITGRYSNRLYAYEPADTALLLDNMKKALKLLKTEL

B1: C14C (ssDNA)
DNA: TCTCGGACGCGTGTGGTCGGCGTTGGGTGGGGGTGGCGGGGGTAGGGTGGTAGGTCGCTAAAATGCTCGCTGCCTGGCCCTAGAGTG
[1]; label: FAM
  Kd: 44.6 ± 7 nM

B2: C14D (ssDNA)
DNA: TCTCGGACGCGTGTGGTCGGTGCATTCTTCTGTTCTTTTAGTGTTTTGTGTTGTATGTTCTTATCCTCGCTGCCTGGCCCTAGAGTG
[1]; label: FAM
  Kd: 48.4 ± 15.6 nM

B3: C14B (ssDNA)
DNA: TCTCGGACGCGTGTGGTCGGGTGGGAGTTGTGGGGGGGGGTGGGAGGGTTCTTTGTTTGATCTTTCTCGCTGCCTGGCCCTAGAGTG
[2]
  binding result: no binding
[1]; label: FAM
  Kd: 13.1 ± 7.2 nM

B4: C14B0 (ssDNA)
DNA: CGGGTGGGAGTTGTGGGGGGGGGTGGGAGGGTTCTTTGTTTGATCTTTCTCGCTGCCTGGCCCTAGAGTG
[1]; label: FAM
  Kd: 8.5 ± 3.6 nM

B5: C14A (ssDNA)
DNA: TCTCGGACGCGTGTGGTCGGGGGGGCGGGGGTTGGGTGGTGGCTTCATTTTGTTTCACGTCGTCCTCGCTGCCTGGCCCTAGAGTG
[1]; label: FAM
  Kd: 20.9 ± 5.2 nM

B6: C14B1 (structured_DNA)
DNA: CGGGTGGGAGTTGTGGGGGGGGGTGGGAGGGTT
[3]
  Kd: 6.2 ± 1.9 nM
[1]; label: 3' FAM, intramolecular parallel G4
  Kd: 19.1 ± 5.1 nM

B7: AGR2-aMB (structured_DNA)
DNA: CGACGCACCGATCGCAGGTTCGGGATTTTCGGGTGGGAGTTGTGGGGGGGGGTGGGAGGGTT
[4]
  binding result: binds
Thrombin
  binding result: no binding
Streptavidin (SA beads)
  binding result: binds
